One assay has as its target CD200 (Homo sapiens) (UniProt P41217). Conditions: cited from earlier work.
Another assay addresses CD200 (Mus musculus) (UniProt O54901). The note with it: cited from earlier work.
The target in assay [1] is CD200 (Rattus norvegicus) (UniProt P04218). The note with it: cited from earlier work.
Assay [2] addresses rabbit CD200R rCD4d3+4 chimeric protein, biotinylated (rabbit (Oryctolagus cuniculus)). The assay is described as follows: SPR; BIAcore 3000, 37 °C, 10 mM HEPES pH 7.5, 150 mM NaCl, 3 mM EDTA, 0.02% P20; biotinylated rCD4d3+4 chimeras from concentrated tissue culture supernatants immobilised on streptavidin coated CM5 chip; purified monomeric soluble protein passed over in increasing concentrations; equilibrium binding, Langmuir isotherm. On the technique in general: In SPR one partner is held on a chip, and binding of the other changes the refractive index at the surface.

Assay [3] addresses rat CD200R rCD4d3+4 chimeric protein, biotinylated (rat) (UniProt Q9ES58). The description is as above.
Assay [4] addresses rabbit CD200 rCD4d3+4 chimeric protein, biotinylated (rabbit (Oryctolagus cuniculus)). The assay is described as above.

A word on the Kd: it is the equilibrium constant for the complex coming apart.

Chain of rabbit CD200R rCD4d3+4 chimeric protein, biotinylated (rabbit (Oryctolagus cuniculus)) (main, as listed by the source mutant): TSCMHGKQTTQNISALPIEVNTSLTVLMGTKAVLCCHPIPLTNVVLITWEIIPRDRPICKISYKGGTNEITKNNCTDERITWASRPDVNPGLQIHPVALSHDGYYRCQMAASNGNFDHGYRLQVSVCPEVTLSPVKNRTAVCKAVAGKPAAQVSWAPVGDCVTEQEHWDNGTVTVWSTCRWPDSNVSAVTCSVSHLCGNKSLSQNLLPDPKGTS
Chain of UniProt P41217 (P41217 31-232): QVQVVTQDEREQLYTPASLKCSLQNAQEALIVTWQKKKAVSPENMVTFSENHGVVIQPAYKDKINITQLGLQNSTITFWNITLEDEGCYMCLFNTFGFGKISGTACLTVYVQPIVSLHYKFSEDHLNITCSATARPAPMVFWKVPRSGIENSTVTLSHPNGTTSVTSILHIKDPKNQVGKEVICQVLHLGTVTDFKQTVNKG
Chain of UniProt P04218 (P04218 31-232): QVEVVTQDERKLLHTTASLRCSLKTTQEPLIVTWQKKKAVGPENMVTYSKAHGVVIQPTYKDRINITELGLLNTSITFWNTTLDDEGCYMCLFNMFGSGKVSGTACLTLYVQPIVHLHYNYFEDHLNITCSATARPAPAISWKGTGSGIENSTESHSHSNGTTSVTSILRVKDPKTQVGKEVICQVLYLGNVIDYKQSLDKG
Chain of UniProt O54901 (O54901 31-232): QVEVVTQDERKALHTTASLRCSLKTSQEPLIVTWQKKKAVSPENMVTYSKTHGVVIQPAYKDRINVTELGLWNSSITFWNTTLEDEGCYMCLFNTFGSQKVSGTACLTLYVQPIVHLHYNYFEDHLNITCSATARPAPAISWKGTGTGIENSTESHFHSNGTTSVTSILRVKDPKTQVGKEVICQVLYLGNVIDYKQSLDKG

Take CD200R (from UniProt Q8TD46): the Kd in the assay with CD200 (Homo sapiens) was 0.5 µM. As to CD200R (from UniProt Q9ES57), in the assay with CD200 (Mus musculus), the Kd is 4 µM. In the case of CD200R (from UniProt Q9ES58), the Kd in assay [1] was 1.5 µM. “soluble recombinant rabbit CD200 (extracellular region, His tag) (from UniProt A0A0S4XRM6 1-233) (ligand)”: the Kd in assay [2] was 3.3 to 3.4 µM; in assay [3], 5.1 µM. In the case of “soluble recombinant rabbit CD200R (extracellular region, His tag) (from UniProt A0A0S4XR64 1-238) (receptor)”, the Kd in assay [4] lay in the range of 3.3 to 3.4 µM.

Source of the values: publication PMC4750549.
